The record followed here is the supplement of paper PMC10567573.

The labels stand for the following.
B1: LOC100129726 (parent)
chain: AKAADSPTRNDLESGLGHFSLRVH
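Also: lentivirally expressed fusions sorted by FACS into six bins by GFP to DsRed ratio, PSI derived from sequencing read proportions per bin multiplied by bin number.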

The series covers variants of B1. Briefly: protein stability index of a GFP-peptide fusion (GPS, HEK-293T) (PSI 1-6); higher = more stable. To be noted: c terminus: a fixed tail appended.
On to AKAADSPTRNNLESGLGHFSLRVH [D11N], for which the protein stability index was 2.47.
AKAADSPTRNSLESGLGHFSLRVH [D11S]: the protein stability index is 2.64.
Consider AKAADSPTRNVLESGLGHFSLRVH [D11V], for which the protein stability index was found to be 2.21.
For AKAADSPTRNWLESGLGHFSLRVH [D11W] the value was 2.56; for AKAADSPTRNLLESGLGHFSLRVH [D11L], 1.9; for AKAADSPTRNRLESGLGHFSLRVH [D11R], 2.54.
Next, AKAADSPTRNMLESGLGHFSLRVH [D11M]: 2.19; AKAADSPTRNCLESGLGHFSLRVH [D11C]: 2.91.
Consider AKAADSPTRNILESGLGHFSLRVH [D11I], for which the protein stability index was found to be 1.96.
For AKAADSPTRNKLESGLGHFSLRVH [D11K], the protein stability index is 2.72.
On to AKAADSPTRNALESGLGHFSLRVH [D11A], for which the protein stability index worked out at 3.1.
AKAADSPTRNGLESGLGHFSLRVH [D11G]: the protein stability index is 2.33.
For the variant AKAADSPTRNQLESGLGHFSLRVH [D11Q], the protein stability index worked out at 2.8.
Turning to AKAADSPTRNTLESGLGHFSLRVH [D11T], the protein stability index came to 2.3.
For the variant AKAADSPTRNFLESGLGHFSLRVH [D11F], the protein stability index was 2.75.
Next, AKAADSPTRNYLESGLGHFSLRVH [D11Y]: 2.25.
Regarding AKAADSPTRNHLESGLGHFSLRVH [D11H], the protein stability index stood at 2.42.
For AKAADSPTRNPLESGLGHFSLRVH [D11P], the protein stability index was determined as 2.35.
In the case of AKAADSPTRNELESGLGHFSLRVH [D11E], the protein stability index is 3.9.
Turning to AKAADSPTRNDLESGLVHFSLRVH [G17V], the protein stability index was found to be 3.13.
Consider AKAADSPTRNDLESGLWHFSLRVH [G17W], for which the protein stability index came to 2.96.
For AKAADSPTRNDLESGLPHFSLRVH [G17P] the value was 3.06; for AKAADSPTRNDLESGLLHFSLRVH [G17L], 1.65; for AKAADSPTRNDLESGLNHFSLRVH [G17N], 3.18.
Next, AKAADSPTRNDLESGLTHFSLRVH [G17T]: 2.56.
In the case of AKAADSPTRNDLESGLRHFSLRVH [G17R], the protein stability index amounted to 2.89.
Next, AKAADSPTRNDLESGLMHFSLRVH [G17M]: 2.27.
AKAADSPTRNDLESGLKHFSLRVH [G17K]: the protein stability index is 2.89.
For AKAADSPTRNDLESGLIHFSLRVH [G17I] the value was 2.28; for AKAADSPTRNDLESGLEHFSLRVH [G17E], 3.58.
Next, AKAADSPTRNDLESGLHHFSLRVH [G17H]: 2.57; AKAADSPTRNDLESGLAHFSLRVH [G17A]: 2.84.
As to AKAADSPTRNDLESGLCHFSLRVH [G17C], the protein stability index is 2.85.
Regarding AKAADSPTRNDLESGLYHFSLRVH [G17Y], the protein stability index stood at 2.37.
In the case of AKAADSPTRNDLESGLFHFSLRVH [G17F], the protein stability index worked out at 2.08.
Next, AKAADSPTRNDLESGLSHFSLRVH [G17S]: 2.84; AKAADSPTRNDLESGLDHFSLRVH [G17D]: 3.82.
In the case of AKAADSPTRNDLESGTGHFSLRVH [L16T], the protein stability index was 3.8.
Regarding AKAADSPTRNDLESGKGHFSLRVH [L16K], the protein stability index was 3.89.
On to AKAADSPTRNDLESGYGHFSLRVH [L16Y], for which the protein stability index is 2.84.
Take AKAADSPTRNDLESGDGHFSLRVH [L16D]: the protein stability index is 3.82.
AKAADSPTRNDLESGHGHFSLRVH [L16H]: the protein stability index is 3.44.
For AKAADSPTRNDLESGIGHFSLRVH [L16I] the value was 3.71.
AKAADSPTRNDLESGMGHFSLRVH [L16M]: the protein stability index stood at 3.26.
Consider AKAADSPTRNDLESGAGHFSLRVH [L16A], for which the protein stability index was determined as 3.97.
Next, AKAADSPTRNDLESGPGHFSLRVH [L16P]: 3.12.
In the case of AKAADSPTRNDLESGVGHFSLRVH [L16V], the protein stability index was 2.38.
On to AKAADSPTRNDLESGSGHFSLRVH [L16S], for which the protein stability index was found to be 3.77.
AKAADSPTRNDLESGGGHFSLRVH [L16G]: the protein stability index was determined as 3.58.
Regarding AKAADSPTRNDLESGFGHFSLRVH [L16F], the protein stability index amounted to 2.57.
AKAADSPTRNDLESGNGHFSLRVH [L16N]: the protein stability index is 3.67.
Take AKAADSPTRNDLESGWGHFSLRVH [L16W]: the protein stability index was found to be 2.74.
On to AKAADSPTRNDLESGRGHFSLRVH [L16R], for which the protein stability index was 3.78.
As for AKAADSPTRNDLESGEGHFSLRVH [L16E], the protein stability index stood at 4.23.
Turning to AKAADSPTRNDLESGQGHFSLRVH [L16Q], the protein stability index came to 3.28.
For AKAADSPPRNDLESGLGHFSLRVH [T8P] the value was 3.38; for AKAADSPVRNDLESGLGHFSLRVH [T8V], 4.01; for AKAADSPQRNDLESGLGHFSLRVH [T8Q], 3.1.
For AKAADSPWRNDLESGLGHFSLRVH [T8W] the value was 1.98; for AKAADSPRRNDLESGLGHFSLRVH [T8R], 2.53.
For AKAADSPYRNDLESGLGHFSLRVH [T8Y] the value was 2.75.
Consider AKAADSPNRNDLESGLGHFSLRVH [T8N], for which the protein stability index stood at 3.36.
As for AKAADSPSRNDLESGLGHFSLRVH [T8S], the protein stability index worked out at 2.74.
Take AKAADSPTRNDLENGLGHFSLRVH [S14N]: the protein stability index worked out at 3.68.
In the case of AKAADSPTRNDLEFGLGHFSLRVH [S14F], the protein stability index worked out at 2.25.
Turning to AKAADSPTRNDLEVGLGHFSLRVH [S14V], the protein stability index came to 2.63.
For AKAADSPTRNDLEHGLGHFSLRVH [S14H] the value was 3.21; for AKAADSPTRNDLEQGLGHFSLRVH [S14Q], 2.94.
For the variant AKAADSPTRNDLECGLGHFSLRVH [S14C], the protein stability index was 2.34.
Next, AKAADSPTRNDLEIGLGHFSLRVH [S14I]: 2.38.
As for AKAADSPTRNDLELGLGHFSLRVH [S14L], the protein stability index came to 2.57.
With AKAADSPTRNDLEKGLGHFSLRVH [S14K], the protein stability index is 3.36.
For AKAADSPTRNDLERGLGHFSLRVH [S14R] the value was 2.78; for AKAADSPTRNDLEMGLGHFSLRVH [S14M], 2.5.
Regarding AKAADSPTRNDLEPGLGHFSLRVH [S14P], the protein stability index worked out at 2.85.
With AKAADSPTRNDLEAGLGHFSLRVH [S14A], the protein stability index was found to be 3.28.
For AKAADSPTRNDLEYGLGHFSLRVH [S14Y] the value was 3.97.
As to AKAADSPTRNDLETGLGHFSLRVH [S14T], the protein stability index was determined as 2.94.
As to AKAADSPTRNDLEGGLGHFSLRVH [S14G], the protein stability index came to 2.9.
Consider AKAADSPTRNDLEEGLGHFSLRVH [S14E], for which the protein stability index was 3.81.
Next, AKAADSPTRNDLEWGLGHFSLRVH [S14W]: 1.36; AKAADSPTRNDLEDGLGHFSLRVH [S14D]: 3.85.
For AKAADSPTRNDLESGLGMFSLRVH [H18M] the value was 2.29.
Regarding AKAADSPTRNDLESGLGAFSLRVH [H18A], the protein stability index is 3.25.
Next, AKAADSPTRNDLESGLGFFSLRVH [H18F]: 2.1; AKAADSPTRNDLESGLGEFSLRVH [H18E]: 3.45.
Take AKAADSPTRNDLESGLGNFSLRVH [H18N]: the protein stability index is 3.53.
For AKAADSPTRNDLESGLGQFSLRVH [H18Q] the value was 3.44.
AKAADSPTRNDLESGLGIFSLRVH [H18I]: the protein stability index turned out to be 3.13.
For the variant AKAADSPTRNDLESGLGPFSLRVH [H18P], the protein stability index was 3.04.
On to AKAADSPTRNDLESGLGDFSLRVH [H18D], for which the protein stability index was found to be 4.08.
AKAADSPTRNDLESGLGKFSLRVH [H18K]: the protein stability index worked out at 3.15.
On to AKAADSPTRNDLESGLGCFSLRVH [H18C], for which the protein stability index came to 3.2.
AKAADSPTRNDLESGLGGFSLRVH [H18G]: the protein stability index worked out at 3.84.
